According to patent US20150203575A1 (Genentech, published 2015):

Columns and labels:
hCOLEC12-his = biological target: T1, hCOLEC12-his (human, UniProt Q5KU26 59-742, sialylated O-glycans and N-glycans); assay: SPR equilibrium binding analysis, hCOLEC12 immobilised
T1 construct: Whole entry named; also called human COLEC12-his; hCOLEC12 (SPR); not shown: his tag

MAG expressed on cells [1] = biological target: T2, MAG expressed on cells (human, UniProt P20916 20-626); assay: flow cytometry, transfected 293T cells, 2 µg/ml
T2 construct: Clone of the Origene human cDNA library; also called Myelin associated glycoprotein; SIGLEC4A
T2 sequence: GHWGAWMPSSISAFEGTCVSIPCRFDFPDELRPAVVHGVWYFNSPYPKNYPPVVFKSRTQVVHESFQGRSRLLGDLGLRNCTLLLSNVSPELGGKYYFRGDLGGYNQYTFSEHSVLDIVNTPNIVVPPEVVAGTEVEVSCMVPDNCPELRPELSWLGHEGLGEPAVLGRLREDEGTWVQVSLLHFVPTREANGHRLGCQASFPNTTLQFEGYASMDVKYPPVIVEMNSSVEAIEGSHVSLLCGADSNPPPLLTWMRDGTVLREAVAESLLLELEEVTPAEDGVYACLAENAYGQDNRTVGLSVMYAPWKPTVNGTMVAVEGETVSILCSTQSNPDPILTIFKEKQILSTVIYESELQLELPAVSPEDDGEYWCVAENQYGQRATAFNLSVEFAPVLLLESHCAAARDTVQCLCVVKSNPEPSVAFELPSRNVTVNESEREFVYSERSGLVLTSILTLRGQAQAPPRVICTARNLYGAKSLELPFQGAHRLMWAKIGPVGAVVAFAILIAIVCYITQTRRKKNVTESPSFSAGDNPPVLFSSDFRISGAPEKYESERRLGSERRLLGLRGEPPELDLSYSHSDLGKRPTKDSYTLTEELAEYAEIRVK

[2] = biological target: T3, LRRTM4 expressed on cells (human, UniProt Q86VH4 31-590); assay: flow cytometry, transfected 293T cells, 2 µg/ml
T3 construct: Clone of the Origene human cDNA library; also called Leucine rich repeat transmembrane neuronal 4

MAG expressed on cells [3] = biological target: T2, MAG expressed on cells; assay: flow cytometry, transfected 293T cells, 50 µg/ml
[4] = biological target: T3, LRRTM4 expressed on cells; assay: flow cytometry, transfected 293T cells, 50 µg/ml
BR3 expressed on cells [5] = biological target: T4, BR3 expressed on cells (human, UniProt Q96RJ3 1-184); assay: flow cytometry, transfected 293T cells, 2 µg/ml
T4 construct: Clone of the Origene human cDNA library
T4 sequence: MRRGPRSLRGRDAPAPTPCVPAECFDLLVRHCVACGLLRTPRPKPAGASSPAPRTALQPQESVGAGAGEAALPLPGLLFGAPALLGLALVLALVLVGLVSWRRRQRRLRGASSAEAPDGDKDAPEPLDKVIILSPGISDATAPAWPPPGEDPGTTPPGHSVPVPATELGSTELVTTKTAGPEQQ

[6] = biological target: T5, IL-2Ra expressed on cells (human, UniProt P01589 22-272); assay: flow cytometry, transfected 293T cells, 2 µg/ml
T5 construct: Clone of the Origene human cDNA library; also called Interleukin 2 receptor alpha
T5 sequence: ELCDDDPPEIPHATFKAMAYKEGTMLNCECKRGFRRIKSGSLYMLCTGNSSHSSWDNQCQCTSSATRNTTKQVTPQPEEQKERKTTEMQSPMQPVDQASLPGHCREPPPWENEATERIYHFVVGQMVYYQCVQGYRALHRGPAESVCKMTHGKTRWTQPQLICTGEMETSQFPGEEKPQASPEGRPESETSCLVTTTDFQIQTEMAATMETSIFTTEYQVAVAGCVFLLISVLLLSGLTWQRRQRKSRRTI

PSS8 expressed on cells [7] = biological target: T6, PSS8 expressed on cells (human, UniProt Q16651 30-343); assay: flow cytometry, transfected 293T cells, 2 µg/ml
T6 construct: Clone of the Origene human cDNA library; also called Protease serine 8; prostasin

BR3 expressed on cells [8] = biological target: T4, BR3 expressed on cells; assay: flow cytometry, transfected 293T cells, 50 µg/ml
[9] = biological target: T5, IL-2Ra expressed on cells; assay: flow cytometry, transfected 293T cells, 50 µg/ml
PSS8 expressed on cells [10] = biological target: T6, PSS8 expressed on cells; assay: flow cytometry, transfected 293T cells, 50 µg/ml
[11] = biological target: T7, mouse CD99 expressed on 293T cells (mouse, UniProt Q8VCN6 29-175, sialylated O-glycans at Thr-45 and Thr-50 (cited as relevant for PILRα recognition)); assay: flow cytometry, transfected 293T cells, 50 µg/ml; 293T-Neo: 1.5
T7 construct: whole, on cells; also called mCD99; mCD99 transfectants
T7 sequence (looked up): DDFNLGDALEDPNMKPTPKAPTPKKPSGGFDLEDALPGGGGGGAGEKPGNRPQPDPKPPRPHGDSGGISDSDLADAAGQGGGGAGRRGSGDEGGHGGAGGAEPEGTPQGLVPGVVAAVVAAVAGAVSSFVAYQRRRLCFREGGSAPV

[12] = biological target: T8, human NPDC1 expressed on cells (human, UniProt Q9NQX5 35-325); assay: as above
T8 construct: also called hNPDC1; hNPCD1
T8 sequence: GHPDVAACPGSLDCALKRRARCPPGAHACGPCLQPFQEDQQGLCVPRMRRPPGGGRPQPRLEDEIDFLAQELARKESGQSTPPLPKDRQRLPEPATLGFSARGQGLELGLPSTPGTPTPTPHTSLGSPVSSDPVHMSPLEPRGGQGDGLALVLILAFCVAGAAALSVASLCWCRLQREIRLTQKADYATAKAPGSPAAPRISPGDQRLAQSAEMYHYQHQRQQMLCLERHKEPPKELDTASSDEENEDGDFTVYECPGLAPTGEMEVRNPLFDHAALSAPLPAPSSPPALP

[13] = biological target: T9, human COLEC12 expressed on cells (human, UniProt Q5KU26 1-742); assay: as above
T9 construct: also called hCOLEC12; C-terminal his tagged hCOLEC12

[14] = biological target: T7, mouse CD99 expressed on 293T cells; assay: flow cytometry, transfected 293T cells, 2 µg/ml; 293T-Neo: 0.013
[15] = biological target: T8, human NPDC1 expressed on cells; assay: as above
[16] = biological target: T9, human COLEC12 expressed on cells; assay: as above
[17] = biological target: T8, human NPDC1 expressed on cells; assay: equilibrium competition radioligand assay: 125I-hPILRα-Fc against unlabeled hPILRα-Fc on 293T cells transiently expressing hNPDC1; average of two replicate assays
From the text: Binding to mock transfectants (grey area) represents background binding. Transfected ligand expressing cells were gated and their binding to PILRα-Fc was shown. […] Binding to mock transfectants (grey area) represents background binding. PILRα positive cells were gated and ligand fusion staining was shown.

T3 sequence (Q86VH4 31-590 limits assumed): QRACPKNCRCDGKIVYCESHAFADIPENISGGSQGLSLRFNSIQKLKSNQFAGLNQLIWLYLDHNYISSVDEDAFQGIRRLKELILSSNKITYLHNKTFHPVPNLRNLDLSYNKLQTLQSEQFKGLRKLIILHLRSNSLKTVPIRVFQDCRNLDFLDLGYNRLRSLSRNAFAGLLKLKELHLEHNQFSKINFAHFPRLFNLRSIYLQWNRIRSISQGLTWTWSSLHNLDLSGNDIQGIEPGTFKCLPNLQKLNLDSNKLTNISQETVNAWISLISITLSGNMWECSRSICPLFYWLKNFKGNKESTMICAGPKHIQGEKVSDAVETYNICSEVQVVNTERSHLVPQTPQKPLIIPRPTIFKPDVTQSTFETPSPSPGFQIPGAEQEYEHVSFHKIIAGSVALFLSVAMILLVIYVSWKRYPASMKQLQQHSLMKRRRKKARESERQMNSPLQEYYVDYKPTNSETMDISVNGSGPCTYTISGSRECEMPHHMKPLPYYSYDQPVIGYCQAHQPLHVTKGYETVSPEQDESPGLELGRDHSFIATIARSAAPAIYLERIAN
T9 sequence (Q5KU26 whole entry S522P/G606S): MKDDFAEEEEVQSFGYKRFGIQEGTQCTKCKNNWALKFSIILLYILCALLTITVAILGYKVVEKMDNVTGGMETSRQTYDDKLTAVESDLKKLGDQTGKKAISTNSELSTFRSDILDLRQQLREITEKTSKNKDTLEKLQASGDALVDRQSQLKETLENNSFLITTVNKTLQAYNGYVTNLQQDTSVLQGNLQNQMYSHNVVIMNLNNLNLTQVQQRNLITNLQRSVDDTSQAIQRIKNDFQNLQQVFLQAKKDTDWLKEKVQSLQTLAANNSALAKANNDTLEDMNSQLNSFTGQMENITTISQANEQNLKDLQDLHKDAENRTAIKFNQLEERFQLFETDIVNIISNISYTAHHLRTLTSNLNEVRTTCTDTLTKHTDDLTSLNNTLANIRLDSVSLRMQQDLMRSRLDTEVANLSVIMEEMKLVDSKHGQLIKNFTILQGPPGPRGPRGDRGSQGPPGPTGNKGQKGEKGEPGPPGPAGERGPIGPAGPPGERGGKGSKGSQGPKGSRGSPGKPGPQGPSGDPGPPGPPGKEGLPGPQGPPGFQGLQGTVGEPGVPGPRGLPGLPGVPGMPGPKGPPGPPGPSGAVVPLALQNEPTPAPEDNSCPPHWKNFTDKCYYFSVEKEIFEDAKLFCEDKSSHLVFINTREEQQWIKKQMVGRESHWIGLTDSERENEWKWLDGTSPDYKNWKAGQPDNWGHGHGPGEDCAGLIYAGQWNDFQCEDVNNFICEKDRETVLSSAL
T6 sequence (Q16651 30-343 limits assumed): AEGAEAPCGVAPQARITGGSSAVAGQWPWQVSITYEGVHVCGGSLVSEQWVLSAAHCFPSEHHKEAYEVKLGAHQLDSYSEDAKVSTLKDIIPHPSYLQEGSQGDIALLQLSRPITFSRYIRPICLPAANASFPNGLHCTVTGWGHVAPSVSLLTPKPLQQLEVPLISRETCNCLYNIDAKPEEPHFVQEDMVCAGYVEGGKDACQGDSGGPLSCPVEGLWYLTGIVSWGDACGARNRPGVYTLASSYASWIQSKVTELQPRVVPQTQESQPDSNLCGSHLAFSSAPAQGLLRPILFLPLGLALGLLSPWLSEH
T1 sequence (Q5KU26 59-742 S522P/G606S limits assumed): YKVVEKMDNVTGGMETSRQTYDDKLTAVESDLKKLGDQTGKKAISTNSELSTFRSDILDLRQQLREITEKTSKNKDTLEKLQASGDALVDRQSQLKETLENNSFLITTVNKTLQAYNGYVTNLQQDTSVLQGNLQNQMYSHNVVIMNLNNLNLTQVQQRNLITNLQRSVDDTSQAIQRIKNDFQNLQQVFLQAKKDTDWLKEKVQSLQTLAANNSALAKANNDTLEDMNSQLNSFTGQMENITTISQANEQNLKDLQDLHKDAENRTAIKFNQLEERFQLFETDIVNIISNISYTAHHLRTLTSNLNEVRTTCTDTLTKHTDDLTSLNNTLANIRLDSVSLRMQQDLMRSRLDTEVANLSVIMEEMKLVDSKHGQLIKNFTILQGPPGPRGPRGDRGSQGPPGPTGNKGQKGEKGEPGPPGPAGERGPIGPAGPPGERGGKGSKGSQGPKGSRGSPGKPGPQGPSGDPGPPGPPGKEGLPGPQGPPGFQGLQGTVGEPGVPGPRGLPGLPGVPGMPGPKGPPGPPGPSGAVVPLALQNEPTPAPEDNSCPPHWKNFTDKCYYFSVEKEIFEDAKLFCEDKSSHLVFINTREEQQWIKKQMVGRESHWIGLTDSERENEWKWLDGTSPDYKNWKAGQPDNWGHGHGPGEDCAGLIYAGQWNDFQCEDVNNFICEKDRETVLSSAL

B1: hPILRα-Fc (Fc fusion)
chain: QPSGSTGSGPSYLYGVTQPKHLSASMGGSVEIPFSFYYPWELATAPDVRISWRRGHFHRQSFYSTRPPSIHKDYVNRLFLNWTEGQKSGFLRISNLQKQDQSVYFCRVELDTRSSGRQQWQSIEGTKLSITQAVTTTTQRPSSMTTTWRLSSTTTTTGLRVTQGKRRSDSWHISLETA
notes: also called human PILRα-Fc; WT hPILRα-Fc; not shown: Fc of mouse IgG2a (PILRα-mIgG2a, called PILRα-Fc)
Kd (hCOLEC12-his): 1100 nM | % cells in lower right quadrant (MAG expressed on cells [1]): 2.31% | % cells in lower right quadrant [2]: 11.7% | % cells in lower right quadrant (MAG expressed on cells [3]): 36.8% | % cells in lower right quadrant [4]: 46% | % cells in lower right quadrant (BR3 expressed on cells [5]): 31.5% | % cells in lower right quadrant [6]: 6.39% | % cells in lower right quadrant (PSS8 expressed on cells [7]): 18.7% | % cells in lower right quadrant (BR3 expressed on cells [8]): 67.3% | % cells in lower right quadrant [9]: 64.4% | % cells in lower right quadrant (PSS8 expressed on cells [10]): 81% | % cells in lower right quadrant [11]: 70.8% | % cells in lower right quadrant [12]: 68.8% | % cells in lower right quadrant [13]: 42% | % cells in lower right quadrant [14]: 23.4% | % cells in lower right quadrant [15]: 27.8% | % cells in lower right quadrant [16]: 0.014% | Kd [17]: 49 nM
